Experimental data as given in patent US12540197B2, “Anti-tissue factor antibodies and antibody conjugates, compositions comprising anti-tissue factor antibodies or antibody conjugates, and methods of making and using anti-tissue factor antibodies and antibody conjugates” (SUTRO BIOPHARMA, INC., priority 2023, dated 2026).
Substitutions are numbered along the chain they refer to.

B1: 47 (antibody)
heavy: MEVQLVESGGGLVQPGGSLRLSCAASGFSISSYDMSWVRQAPGKGLEWIGIIGSNGRTYYPDSVKGRFTISRDNSKNTVTLQMNSLRAEDTAVYYCARGLYDGTGNIWGQGTLVTVSSASTKGPSVFPLAPSSKSTSGGTAALGCLVKDYFPEPVTVSWNSGALTSGVHTFPAVLQSSGLSLSSVVTVPSSSLGTQTYICNVNHKPSNTKVDKKVEPKSCDKTHTCPPCPAPELLGGPSVFLFPPKPKDTLMISRTPEVTCVVVDVSHEDPEVKFNWYVDGVEVHNAKTKPREEQYNSTYRVVSVLTVLHQDWLNGKEYKCKVSNKALPAPIEKTISKAKGQPREPQVYTLPPSREEMTKNQVSLTCLVKGFYPSDIAVEWESNGQPENNYKTTPPVLDSDGSFLYSKLTVDKSRWQQGNVFSCSVMHEALHNHYTQKSLSLSPGK
light: MDLQMTQSPSSLSASVGDRVTITCRASQSVYGNNWLSWYQQKPGKAPKLLIYGASKLASGVPSRFSGSGSGTQFTLTISSLQPEDFATYYCQGTYYSGDWYFAFGQGTKVEIKRTVAAPSVFIFPPSDEQLKSGTASVVCLLNNFYPREAKVQWKVDNALQSGNSQESVTEQDSKDSTYSLSSTLTLSKADYEKHKVYACEVTHQGLSSPVTKSFNRGEC
modifications: pAzMeF at Y180/F404; conjugate
B2: 48 (antibody)
heavy: B1 heavy with E2Q, L5V, Q14K, V38I, P61A, D73N, N74T, S75N, K76E, T80Y
light: B1 light with L3I, R25Q, Q73D, Q106G
modifications: pAzMeF at Y180/F404; conjugate
B3: 49 (antibody)
heavy: MQVQVQESGPGLVKPPGTLSLTCAVSGFSLSYYGVSWVRQPPGKGLEWIGTIDSSGRTYYNPSLKSRVTISNDNAPNTVSLKLSSVTAADTAVYYCARDFYGWNSGALDIWGQGTLVTVSSASTKGPSVFPLAPSSKSTSGGTAALGCLVKDYFPEPVTVSWNSGALTSGVHTFPAVLQSSGLSLSSVVTVPSSSLGTQTYICNVNHKPSNTKVDKKVEPKSCDKTHTCPPCPAPELLGGPSVFLFPPKPKDTLMISRTPEVTCVVVDVSHEDPEVKFNWYVDGVEVHNAKTKPREEQYNSTYRVVSVLTVLHQDWLNGKEYKCKVSNKALPAPIEKTISKAKGQPREPQVYTLPPSREEMTKNQVSLTCLVKGFYPSDIAVEWESNGQPENNYKTTPPVLDSDGSFLYSKLTVDKSRWQQGNVFSCSVMHEALHNHYTQKSLSLSPGK
light: MDLQLTQSPSTLSASVGDRVTITCRASQSVYSNKYLSWYQQKPGKAPKLLIYKASTLASGVPSRFSGSGSGTEFTLTISSLQPDDFATYYCAAAYSDDSDTAFGQGTKVEIKRTVAAPSVFIFPPSDEQLKSGTASVVCLLNNFYPREAKVQWKVDNALQSGNSQESVTEQDSKDSTYSLSSTLTLSKADYEKHKVYACEVTHQGLSSPVTKSFNRGEC
modifications: pAzMeF at Y180/F404; conjugate

biological target: T1, human TF (Homo sapiens, UniProt P13726); experiment: Biacore off-rate and kinetic binding, human TF; conditions: Table 12; 25° C., 1:1 Langmuir
T1 construct: purchased Lake Pharma
T1 sequence (P13726 33-295): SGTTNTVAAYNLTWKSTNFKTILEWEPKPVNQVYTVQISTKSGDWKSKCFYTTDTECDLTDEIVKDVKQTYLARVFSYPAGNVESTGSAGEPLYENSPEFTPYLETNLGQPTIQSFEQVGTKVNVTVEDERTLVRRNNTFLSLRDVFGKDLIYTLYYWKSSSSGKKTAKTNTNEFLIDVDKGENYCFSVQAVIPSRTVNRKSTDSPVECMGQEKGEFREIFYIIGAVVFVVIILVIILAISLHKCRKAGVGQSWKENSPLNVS
Protocol: (§1) Anti-Fc polyclonal antibodies were immobilized onto a CM4 chip (Cytiva #BR100534) using amine coupling chemistry (Human Antibody Capture Kit, Cytiva #BR100839). The immobilization steps were carried out at a flow rate of 25 μL/min in 1×HBS-EP+buffer (Cytiva #BR100669). The sensor surfaces were activated for 7 min with a mixture of N-hydroxysuccinimide (NHS, 0.05 M) and 1-ethyl-3-(3-dimethylaminopropyl)-carbodiimide (EDC, 0.2 M). The anti-Fc polyclonal antibodies were injected over all 4 flow cells at a concentration of 25 μg/mL in 10 mM sodium acetate, pH 4.5, for 7 min. Ethanolamine (1 M, pH 8.5) was injected for 7 min to block any remaining activated groups. Approximately 6,000 response units (RU) of capture antibody was immobilized on each flow cell.
(§2) Off-rate and kinetic binding experiments were performed at 25° C. using 1×HBS-EP+buffer. Antibodies were injected over the anti-Fc surface at a concentration of 3 μg/mL for 12 seconds at a flow rate of 10 μL/min on flow cells 2, 3 and 4, followed by a buffer wash for 30 seconds at the same flow rate. Single point off-rate analysis was carried out using an antigen concentration of 100 nM. […] After capturing ligand (antibody) on the anti-Fc surface, the analyte (human TF, Lake Pharma; cynomolgus TF, Sino Bio #90885-C08H; mouse TF, R&D Systems #3178-PA) was bound for 180 seconds, followed by a 420 second dissociation phase at a flow rate of 50 μL/min. Between each ligand capture and analyte binding cycle, regeneration was carried out using 2 injections of 10 mM glycine pH 2.0 for 30 seconds at 30 μL/min, followed by a 30 second buffer wash step.
(§3) The data were fit with the Biacore T200 Evaluation software, using a 1:1 Langmuir binding model. KD (affinity, nM) was determined as a ratio of the kinetic rate constants calculated from the fits of the association and dissociation phases.
(§4) Anti-Fc polyclonal antibodies were immobilized onto a CM4 chip (Cytiva #BR100534) using amine coupling chemistry (Human Antibody Capture Kit, Cytiva #BR100839). The immobilization steps were carried out at a flow rate of 25 μL/min in 1×HBS-EP+buffer (Cytiva #BR100669). The sensor surfaces were activated for 7 min with a mixture of NHS (0.05 M) and EDC (0.2 M). The Anti-Fc antibodies were injected over all 4 flow cells at a concentration of 25 ug/ml in 10 mM sodium acetate, pH 4.5, for 7 min. Ethanolamine (1 M, pH 8.5) was injected for 7 min to block any remaining activated groups. Approximately 6,000 response units (RU) of capture antibody was immobilized on each flow cell. Off-rate and kinetic binding experiments were performed at 25° C. using 1×HBS-EP+buffer. Antibodies or ADCs were injected over the anti-Fc surface at a concentration of 3 μg/mL for 12 seconds at a flow rate of 10 μL/min on flow cells 2, 3 and 4, followed by a buffer wash for 30 seconds at the same flow rate. […] After capturing ligand (antibody) on the anti-Fc surface, the analyte (human TF, Lake Pharma; cynomolgus TF, Sino Bio #90885-C08H; mouse TF, R&D Systems #3178-PA) was bound for 180 seconds, followed by a 420 second dissociation phase at a flow rate of 50 μL/min. Between each ligand capture and analyte binding cycle, regeneration was carried out using 2 injections of 10 mM Glycine pH 2.0 for 30 seconds at 30 μL/min, followed by a 30 second buffer wash step. The data was fit with the Biacore T200 Evaluation software, using a 1-1 Langmuir binding model. KD (affinity, nM) was determined as a ratio of the kinetic rate constants calculated from the fits of the association and dissociation phases.

B1 and B2 are within 1.5-fold of each other in “Biacore human TF kinetics ka” value: 54000 M⁻¹ s⁻¹ for the first, 71200 M⁻¹ s⁻¹ for the second.

In the case of B3, the “Biacore human TF kinetics ka” value is reported as 62500 M⁻¹ s⁻¹.

Going from B1 to B2, the “Biacore human TF kinetics kd” value rises from 0.000422 s⁻¹ to 0.00124 s⁻¹ (2.9-fold).

With B3 the “Biacore human TF kinetics kd” value was 0.000865 s⁻¹.

tested on: HEK293T; experiment: FACS cell-binding assay on parental HEK293T cells; conditions: Table 16, parental cells
From the text: HEK293T, BxPC3 cells (TF positive) and NCI-H1703 (TF negative) cells were obtained from ATCC (American Type Culture Collection) and maintained in DMEM:F12 (1:1), high glucose (Corning) supplemented with 10% heat-inactivated fetal bovine serum (ThermoScientific), 1× Penicillin/Streptomycin (Corning) and 2 mmol glutamax (Thermo Fisher Scientific). To generate cells that stably expressing human tissue factor (HEK293T-humanTF) or cynomolgus tissue factor (HEK293T-cynoTF), HEK293T cells were transfected with plasmid vectors that contain the corresponding protein sequence and stable clones were selected with puromycin.
For a fluorescence-activated cell sorting (FACS) cell-binding assay, cells were collected by Accutase and counted by the Vi-CELL Cell Viability Analyzersharvested and, then re-suspended in FACS buffer (DPBS buffer supplemented with 1% bovine serum albumin). A total of 200,000 cells in 100 μL were incubated on ice with 100 μL of anti-TF antibodies in each well of a 96-well plate. Cells were washed twice with ice-cold FACS buffer and then incubated on ice for 60 mins with 5 μg/mL Alexa 647-labeled donkey anti-human Fc antibody (Jackson ImmunoResearch). Unstained cells and cells stained with secondary antibody alone were used as controls. Cells were washed twice with FACS buffer and analyzed using a BD FACS Canto system. Geometric mean fluorescence intensities (MFI) were fitted using non-linear regression analysis with one site specific binding equation on GraphPad Prism (GraphPad Software; La Jolla, CA).

Going from B1 to B2, the “HEK293T Bmax (MFI)” value falls from 1285 MFI to 1232 MFI.

With B3 the “HEK293T Bmax (MFI)” value was 1366 MFI.

tested on: cynomolgus TF; experiment: Biacore off-rate and kinetic binding, cynomolgus TF; conditions: Table 12; 25° C., 1:1 Langmuir
Sequence (as listed by the source): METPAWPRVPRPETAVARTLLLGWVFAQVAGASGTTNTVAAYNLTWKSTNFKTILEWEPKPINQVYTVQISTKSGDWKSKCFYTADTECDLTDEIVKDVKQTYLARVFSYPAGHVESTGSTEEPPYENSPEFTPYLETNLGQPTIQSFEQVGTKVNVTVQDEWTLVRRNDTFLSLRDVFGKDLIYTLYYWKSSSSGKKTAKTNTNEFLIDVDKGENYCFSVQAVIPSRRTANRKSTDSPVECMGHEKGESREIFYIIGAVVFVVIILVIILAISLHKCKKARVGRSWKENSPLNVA
Protocol: as §1, §2, §3, §4

B1 and B2 are within 1.5-fold of each other in “Biacore cynomolgus TF kinetics ka” value: 82700 M⁻¹ s⁻¹ for the first, 121000 M⁻¹ s⁻¹ for the second.

For B3, the “Biacore cynomolgus TF kinetics ka” value was 80800 M⁻¹ s⁻¹.

Compared with B1, B2 is 4.4-fold higher in “Biacore cynomolgus TF kinetics kd” value: 0.00166 s⁻¹ for the first, 0.00735 s⁻¹ for the second.

For B3, the “Biacore cynomolgus TF kinetics kd” value was 0.00241 s⁻¹.
